Data set [1] concerns the target T1, bS21 (Halalkalibacterium halodurans C-125?) (UniProt Q9KD65).
T1 sequence: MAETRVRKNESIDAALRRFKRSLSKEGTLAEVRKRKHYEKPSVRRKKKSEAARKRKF
Put plainly: filter binding. To be noted: Filter binding: 20 mM Tris-HCl pH 7.5, 150 mM NaCl, 10 mM MgCl2, 1 mM TCEP, 5% glycerol, 0.001% SDS, ~2.5 nM RNA, 20°C, 15 min; in-line probing buffer not in ….

Data set [2] has as its target T1, bS21 (Halalkalibacterium halodurans C-125?). Put plainly: footprinting (in-line probing). To be noted: Filter binding: 20 mM Tris-HCl pH 7.5, 150 mM NaCl, 10 mM MgCl2, 1 mM TCEP, 5% glycerol, 0.001% SDS, ~2.5 nM RNA, 20°C, 15 min; in-line probing buffer not in ….

For “GGCAUUUAAAGAGGAUUACAGUGUGGACUAAGUGGUAAUCCAGUCUGGCGUUUGGUGACAGCGCCAAGUUCAACAUAAAGGGAAACCGCCAGCGCGGCGACGCACUGGUGUUGAAUUGGGAAAUCCUACUGGACCUAAGCCACAGAGUUUACUCUUUAAAUG [OLE449-608]”, the binding result in data set [1] is “binds more weakly”.
For “GGGGCACAUCGAUGAAGCUCCUUGUGAUGGCUUGAGGCGCCCAGCCUUGGGUCAUUGCUGGGAGAAAAGGUAGUAGGGCGAUCCACAAAGGCAUGUGGGCGAUGACCCUCCUACUGUGGAGGCCUUUUUCUCUGCUGCUUAUGUAUGGACAUAGGGCAAGAGCAAAGGGUAUGAACCUGCGAAGGCAAGCUAGGGAGCUUGUCAGCAGCGUAGCC [OLE78-290]”, the binding result in data set [2] and in data set [1] was “binds” in each case.
As to “GGAUCGAUGAAGCUCCUUGUGAUGGCUUGAGGCGCCCAGCCUUGGGUCAUUGCUGGGAGAAAAGGUAGUAGGGCGAUCCACAAAGGCAUGUGGGCGAUGACCCUCCUACUG [OLE83-191 WT]”, the binding result in data set [2] and in data set [1] was “binds” throughout.

(Values after paper PMC12054373.)
